{"source": "patent US20040205843A1", "about": "(NORTH CAROLINA STATE UNIVERSITY, published 2004)"}
{"molecular_target": "T1, Full length GST-AL1 1-352 (tomato golden mosaic virus (TGMV), UniProt P03567 1-352)", "T1 sequence": "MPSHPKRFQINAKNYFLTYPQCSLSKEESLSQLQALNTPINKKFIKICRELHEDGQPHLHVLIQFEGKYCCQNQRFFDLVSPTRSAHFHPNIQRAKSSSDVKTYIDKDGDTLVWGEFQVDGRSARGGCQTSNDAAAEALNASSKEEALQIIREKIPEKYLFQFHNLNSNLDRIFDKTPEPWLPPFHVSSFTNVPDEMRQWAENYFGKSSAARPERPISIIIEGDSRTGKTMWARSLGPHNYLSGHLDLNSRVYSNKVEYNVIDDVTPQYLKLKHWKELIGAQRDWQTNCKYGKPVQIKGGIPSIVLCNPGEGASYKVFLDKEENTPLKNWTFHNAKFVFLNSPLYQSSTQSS", "assay": "GST co-purification from insect cells, immunoblot"}
{"binder": "AL1 1-180 (other) MPSHPKRFQINAKNYFLTYPQCSLSKEESLSQLQALNTPINKKFIKICRELHEDGQPHLHVLIQFEGKYCCQNQRFFDLVSPTRSAHFHPNIQRAKSSSDVKTYIDKDGDTLVWGEFQVDGRSARGGCQTSNDAAAEALNASSKEEALQIIREKIPEKYLFQFHNLNSNLDRIFDKTPEP", "binding result": "binds"}
{"binder": "AL1 147-352 (other) ALQIIREKIPEKYLFQFHNLNSNLDRIFDKTPEPWLPPFHVSSFTNVPDEMRQWAENYFGKSSAARPERPISIIIEGDSRTGKTMWARSLGPHNYLSGHLDLNSRVYSNKVEYNVIDDVTPQYLKLKHWKELIGAQRDWQTNCKYGKPVQIKGGIPSIVLCNPGEGASYKVFLDKEENTPLKNWTFHNAKFVFLNSPLYQSSTQSS", "binding result": "binds"}
{"binder": "TGMV AL1, wild type, full length, untagged (other, also called Rep; authentic AL1) MPSHPKRFQINAKNYFLTYPQCSLSKEESLSQLQALNTPINKKFIKICRELHEDGQPHLHVLIQFEGKYCCQNQRFFDLVSPTRSAHFHPNIQRAKSSSDVKTYIDKDGDTLVWGEFQVDGRSARGGCQTSNDAAAEALNASSKEEALQIIREKIPEKYLFQFHNLNSNLDRIFDKTPEPWLPPFHVSSFTNVPDEMRQWAENYFGKSSAARPERPISIIIEGDSRTGKTMWARSLGPHNYLSGHLDLNSRVYSNKVEYNVIDDVTPQYLKLKHWKELIGAQRDWQTNCKYGKPVQIKGGIPSIVLCNPGEGASYKVFLDKEENTPLKNWTFHNAKFVFLNSPLYQSSTQSS", "binding result": "binds"}
{"binder": "AL1 E-N140 (Ala4), full length, untagged (other) MPSHPKRFQINAKNYFLTYPQCSLSKEESLSQLQALNTPINKKFIKICRELHEDGQPHLHVLIQFEGKYCCQNQRFFDLVSPTRSAHFHPNIQRAKSSSDVKTYIDKDGDTLVWGEFQVDGRSARGGCQTSNDAAAAALAASSKEEALQIIREKIPEKYLFQFHNLNSNLDRIFDKTPEPWLPPFHVSSFTNVPDEMRQWAENYFGKSSAARPERPISIIIEGDSRTGKTMWARSLGPHNYLSGHLDLNSRVYSNKVEYNVIDDVTPQYLKLKHWKELIGAQRDWQTNCKYGKPVQIKGGIPSIVLCNPGEGASYKVFLDKEENTPLKNWTFHNAKFVFLNSPLYQSSTQSS", "binding result": "binds"}
{"binder": "AL1 KEE146 (Ala5), full length, untagged (other) MPSHPKRFQINAKNYFLTYPQCSLSKEESLSQLQALNTPINKKFIKICRELHEDGQPHLHVLIQFEGKYCCQNQRFFDLVSPTRSAHFHPNIQRAKSSSDVKTYIDKDGDTLVWGEFQVDGRSARGGCQTSNDAAAEALNASSAAAALQIIREKIPEKYLFQFHNLNSNLDRIFDKTPEPWLPPFHVSSFTNVPDEMRQWAENYFGKSSAARPERPISIIIEGDSRTGKTMWARSLGPHNYLSGHLDLNSRVYSNKVEYNVIDDVTPQYLKLKHWKELIGAQRDWQTNCKYGKPVQIKGGIPSIVLCNPGEGASYKVFLDKEENTPLKNWTFHNAKFVFLNSPLYQSSTQSS", "binding result": "binds"}
{"binder": "AL1 K-E179 (Ala10), full length, untagged (other) MPSHPKRFQINAKNYFLTYPQCSLSKEESLSQLQALNTPINKKFIKICRELHEDGQPHLHVLIQFEGKYCCQNQRFFDLVSPTRSAHFHPNIQRAKSSSDVKTYIDKDGDTLVWGEFQVDGRSARGGCQTSNDAAAEALNASSKEEALQIIREKIPEKYLFQFHNLNSNLDRIFDATPAPWLPPFHVSSFTNVPDEMRQWAENYFGKSSAARPERPISIIIEGDSRTGKTMWARSLGPHNYLSGHLDLNSRVYSNKVEYNVIDDVTPQYLKLKHWKELIGAQRDWQTNCKYGKPVQIKGGIPSIVLCNPGEGASYKVFLDKEENTPLKNWTFHNAKFVFLNSPLYQSSTQSS", "binding result": "binds"}
{"binder": "AL1 134-352 (other) AAAEALNASSKEEALQIIREKIPEKYLFQFHNLNSNLDRIFDKTPEPWLPPFHVSSFTNVPDEMRQWAENYFGKSSAARPERPISIIIEGDSRTGKTMWARSLGPHNYLSGHLDLNSRVYSNKVEYNVIDDVTPQYLKLKHWKELIGAQRDWQTNCKYGKPVQIKGGIPSIVLCNPGEGASYKVFLDKEENTPLKNWTFHNAKFVFLNSPLYQSSTQSS", "binding result": "binds"}
